Data published in paper PMC4883009 (Biochemistry, 2016).

Key:
[1] = tested on: bsSecA783 F652-GS(10)-PhoAss Cys22-IAEDANS; assay: Signal peptide competition-binding assay by FRET; parameters: species or system B. subtilis; conditions: 5-fold molar excess of unlabeled SP22; data not shown
[2] = tested on: bsSecA783 F652-GS(5)-KRRLamBss Cys29-IAEDANS; assay: Signal peptide competition-binding assay by FRET; parameters: species or system B. subtilis; conditions: 5-fold molar excess of unlabeled SP22; data not shown
[3] = target: E. coli alkaline phosphatase signal peptide SP22, IANBD-labeled (E. coli); assay: fluorescence polarisation
IANBD-labeled SP22 = assay: SecA-signal peptide binding affinity by fluorescence anisotropy; parameters: species or system E. coli

| Molecule | Kd [3] | other results |
| --- | --- | --- |
| MKQSTIALALLPLLFTPVTKAC-NH2 [SP22] | – | reduction of energy transfer efficiency [1]: approximately 50%; reduction of energy transfer efficiency [2]: approximately 50% |
| bsSecA783-KRRLamBss (from UniProt P28366 1-783) | 13 µM | – |
| bsSecA783-PhoAss (from UniProt P28366 1-783) | 4.5 µM | – |
| bsSecA841 (from UniProt P28366 1-841) (enzyme) | 1.9 µM | – |
| bsSecA841-KRRLamBss (from UniProt P28366 1-841) | 14 µM | – |
| bsSecA841-PhoAss (from UniProt P28366 1-841) | 4.6 µM | – |
| bsSecA783: carboxy-terminally truncated B. subtilis SecA lacking the CTL domain (protein, UniProt P28366 1-783, looked up, fragment) MLGILNKMFDPTKRTLNRYEKIANDIDAIRGDYENLSDDALKHKTIEFKERLEKGATTDDLLVEAFAVVREASRRVTGMFPFKVQLMGGVALHDGNIAEMKTGEGKTLTSTLPVYLNALTGKGVHVVTVNEYLASRDAEQMGKIFEFLGLTVGLNLNSMSKDEKREAYAADITYSTNNELGFDYLRDNMVLYKEQMVQRPLHFAVIDEVDSILIDEARTPLIISGQAAKSTKLYVQANAFVRTLKAEKDYTYDIKTKAVQLTEEGMTKAEKAFGIDNLFDVKHVALNHHINQALKAHVAMQKDVDYVVEDGQVVIVDSFTGRLMKGRRYSEGLHQAIEAKEGLEIQNESMTLATITFQNYFRMYEKLAGMTGTAKTEEEEFRNIYNMQVVTIPTNRPVVRDDRPDLIYRTMEGKFKAVAEDVAQRYMTGQPVLVGTVAVETSELISKLLKNKGIPHQVLNAKNHEREAQIIEEAGQKGAVTIATNMAGRGTDIKLGEGVKELGGLAVVGTERHESRRIDNQLRGRSGRQGDPGITQFYLSMEDELMRRFGAERTMAMLDRFGMDDSTPIQSKMVSRAVESSQKRVEGNNFDSRKQLLQYDDVLRQQREVIYKQRFEVIDSENLREIVENMIKSSLERAIAAYTPREELPEEWKLDGLVDLINTTYLDEGALEKSDIFGKEPDEMLELIMDRIITKYNEKEEQFGKEQMREFEKVIVLRAVDSKWMDHIDAMDQLRQGIHLRAYAQTNPLREYQMEGFAMFEHMIESIEDEVAKFVMKAEIENN | – | higher affinity for SP22 compared to full-length bsSecA841 (IANBD-labeled SP22): approximately 4 fold |
